For assay [1], the target named is T1, RBD antigen (SARS-CoV-2 receptor-binding domain) (SARS-CoV-2, variant  …, UniProt P0DTC2).
T1 construct: source: provided by R. Strong (Fred Hutchinson Cancer Institute)
Briefly: ELISA. (In an ELISA, binding on a coated surface is turned into a signal by an enzyme label.)

Assay [2] addresses T2, MBP–FlaA (C. jejuni flagellin FlaA, amino acids 177–482) (Campylobacter jejuni, flagellin A …, biotinylated (EZ-Link NGS-PEG4-Biotin kit) in the BLI).
T2 construct: The biotinylated form was used for BLI; The ELISA methods name the coating protein only as recombinant FlaA; also called recombinant FlaA; recombinant C. jejuni flagellin; source: E. coli BL-21(DE3), purified (Amylose Resin); not shown: MBP, N-terminal, kept
T2 chain: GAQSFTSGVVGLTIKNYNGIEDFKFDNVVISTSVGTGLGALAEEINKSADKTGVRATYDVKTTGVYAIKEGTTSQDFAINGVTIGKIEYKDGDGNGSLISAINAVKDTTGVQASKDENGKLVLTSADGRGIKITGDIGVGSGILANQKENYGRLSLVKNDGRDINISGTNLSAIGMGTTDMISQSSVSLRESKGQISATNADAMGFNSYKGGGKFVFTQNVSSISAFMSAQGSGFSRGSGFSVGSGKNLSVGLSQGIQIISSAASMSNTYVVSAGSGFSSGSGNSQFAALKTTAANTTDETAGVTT
Nature of the assay: BLI; Octet Red96e; biotinylated MBP–FlaA loaded at 100 nM on streptavidin biosensors; purified aa682 from 1 μM to 10 nM in PBS with 1% BSA and 0.05% Tween-20; association 20 s, dissociation 140 s; global fit, 1:1 model. The following applies: both partners purified.

B1: PP622, monomeric RBD-binding VHH (VHH-72), E. coli-expressed and purified (VHH)
VHH: QVQLQESGGGLVQAGGSLRLSCAASGRTFSEYAMGWFRQAPGKEREFVATISWSGGSTYYTRSVKGRFTISRDNAKNTVYLQMNSLKPDDTAVYYCAAAGLGTVVSEWDYDYDYWGQGTQVTVSS
notes: also called monomeric VHH; source: E. coli, purified (IMAC)
A word on the EC50: it is the concentration at which the effect is half-maximal. High values mean weaker potency, low ones greater potency. Turning to B1, the response in assay [1] (both partners purified) was half-maximal at 18.3 nM (EC50).

B2: monomeric RBD-binding VHH (VHH-72) in extract of spirulina strain SP1464 (VHH)
VHH: QVQLQESGGGLVQAGGSLRLSCAASGRTFSEYAMGWFRQAPGKEREFVATISWSGGSTYYTRSVKGRFTISRDNAKNTVYLQMNSLKPDDTAVYYCAAAGLGTVVSEWDYDYDYWGQGTQVTVSS
notes: also called monomeric VHH, extract; source: spirulina strain SP1464, in extract
In assay [1] (one partner purified), B2 gave an EC50 of 52.3 nM.

B3: dimeric RBD-binding VHH (VHH-72 on the 5HVZ scaffold) in extract of spirulina strain SP1477 (VHH)
VHH: QVQLQESGGGLVQAGGSLRLSCAASGRTFSEYAMGWFRQAPGKEREFVATISWSGGSTYYTRSVKGRFTISRDNAKNTVYLQMNSLKPDDTAVYYCAAAGLGTVVSEWDYDYDYWGQGTQVTVSS
notes: as the dimerization motif of m5, named only by its PDB entry 5HVZ; also called dimeric VHH, extracted form; source: spirulina strain SP1477, in extract
For B3, a half-maximal effect in assay [1] (one partner purified) (EC50) was put at 1.29 nM.

B4: PP661, dimeric RBD-binding VHH (VHH-72 on the 5HVZ scaffold), E. coli-expressed and purified (VHH)
VHH: QVQLQESGGGLVQAGGSLRLSCAASGRTFSEYAMGWFRQAPGKEREFVATISWSGGSTYYTRSVKGRFTISRDNAKNTVYLQMNSLKPDDTAVYYCAAAGLGTVVSEWDYDYDYWGQGTQVTVSS
notes: also called dimeric VHH; source: E. coli, purified (IMAC)
For the molecule B4, a half-maximal response in assay [1] (both partners purified) (EC50) required 0.32 nM.

B5: aa682 (VHH)
VHH: QVQLVESGGGLVQAGGSLRVSCTASVSTFSINALGWYRQAPGKARELVAAIGSDGTVYYTDSVKGRFTISRDNAKNTVSLQMSSLKPEDTAVYYCNAAGKRIGSDGSIWFAVASFGSWGQGTQVTVSS
notes: N-terminal methionine removed (intact mass); Monovalent VHH-MBP fusion, predicted MW 54.8 kDa
Broadly, the Kd is the constant that tells how readily two partners part at equilibrium. The low end stands for a tighter complex, the high end for a looser complex. As for B5, the Kd in assay [2] is 53 nM.

Values taken from publication PMC9200632, “Development of spirulina for the manufacture and oral delivery of protein therapeutics” (Nature Biotechnology, 2022).
